# Columns and labels:
# [1] = test system: Mfn1, Mfn2; experiment: Immunoblot of Mfn1 and Mfn2 protein levels in reconstituted MEFs; format: cell-based, mouse
# [2] = test system: 293T cells; experiment: siRNA silencing of PKM2, rescue from BimS killing; format: cell-based, human; settings: 30 nM PKM2-specific siRNA
# Description: 5×10^5 cells were incubated per well for 12 h, then cells were either mock-transfected, transfected with 30 nM PKM2-specific siRNA (si M2), or transfected with NF-kB p50-specific siRNA (si p50). After a further 36-h incubation, samples of the same siRNAs were added along with 4 μg of BimS cDNA in fresh medium. Viable cells were counted after another 48-h incubation.
# Untreated or IB5-infected 293T cells (5×10^5 per well) were seeded into 6-well plates (Falcon) and transfected with 30 nM siRNA. Lipofectamine™ 2000 (Invitrogen, Carlsbad, Calif., USA) was used for transient transfection according to the manufacturer's protocol. After a 30-h incubation, fresh medium containing 30 nM siRNA and 4 μg/ml BimS expression plasmid was added. Cell viability assay was assayed after a further 36-h incubation. The PKM2-siRNA and control siRNA were purchased from Dharmacon (SiGENOME SMART™ pool hPKM2, Si156, and ONTARGETplus™ non-targeting siRNA #2) (Goldberg and Sharp, 2012).
# [3] = test system: MDA-MB231-LM2; experiment: Clonogenic rescue from BimS-induced death, MDA-MB231-LM2; format: cell-based; settings: lung metastatic derivative MDA-MB231-LM2
# Description: Control or IB5-expressing cells were transfected with BimS cDNA. The plates were fixed and stained with crystal violet after 12 days and the total areas of colonies were measured. Mean, SD and P values were calculated from 3 individual plates.
# [4] = test system: mitochondria isolated from 293T cells; experiment: Mitochondria isolation and cytochrome c release assay (MOMP induced by cleaved Bid); format: cell-based, human; settings: mitochondria from IB5-expressing 293T cells, 30 min at 37° C.
# Description: Control (top) or Intrabody-expressing (bottom) 293T cells were collected and the mitochondrial fraction was isolated by differential centrifugation. To induce MOMP, recombinant cBid protein was added at the indicated concentrations. After incubation for 30 min at 37° C., samples were centrifuged, and cytochrome c (cyt c) content in mitochondrial pellet fractions was analyzed by immunoblot. A representative of three independent experiments is shown. Right panel: densitometric quantification of average cytochrome c content ±SEM from three independent experiments.
# Mitochondria were isolated from 5×10^8 cells as described (Waterhouse et al., 2001). The freshly isolated mitochondria ([…]) were then incubated with recombinant cleaved Bid protein (Kuwana et al., 2002) at the indicated concentrations in the presence or absence of purified scFv #5. After incubation for 30 min at 37° C., mitochondria were collected by centrifugation at 10 000×g and analyzed by immunoblotting as described (Waterhouse et al., 2001).
# [5] = molecular target: PKM1 (Homo sapiens, UniProt P14618); experiment: Blue native gel electrophoresis of recombinant proteins, PKM1; format: binding
# PKM1, sequence (P14618 1-531 isoform P14618-2, species assumed): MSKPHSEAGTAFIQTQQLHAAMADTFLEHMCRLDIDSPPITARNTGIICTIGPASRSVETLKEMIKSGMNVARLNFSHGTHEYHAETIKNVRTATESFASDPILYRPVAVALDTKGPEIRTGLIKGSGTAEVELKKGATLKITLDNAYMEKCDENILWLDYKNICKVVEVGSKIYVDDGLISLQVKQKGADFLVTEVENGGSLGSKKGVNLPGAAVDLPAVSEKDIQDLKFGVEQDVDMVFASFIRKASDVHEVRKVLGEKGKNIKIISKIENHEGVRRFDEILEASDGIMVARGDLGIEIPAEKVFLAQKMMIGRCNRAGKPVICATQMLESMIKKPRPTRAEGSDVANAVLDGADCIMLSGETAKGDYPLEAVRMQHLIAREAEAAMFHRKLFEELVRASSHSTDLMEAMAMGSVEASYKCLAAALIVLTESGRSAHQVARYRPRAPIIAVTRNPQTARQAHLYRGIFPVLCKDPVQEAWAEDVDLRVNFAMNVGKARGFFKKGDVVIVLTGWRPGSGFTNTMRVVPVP
# [6] = molecular target: T1, WT PKM2 (Homo sapiens, UniProt P14618); experiment: Pyruvate kinase assay (Kinase-Glo Plus), WT PKM2; format: biochemical; settings: PKM2 at 50 nM; ADP and PEP as substrates
# T1 construct: His (N); made in house; host or cells: Escherichia coli BL21(DE3)
# T1 sequence (P14618 whole entry): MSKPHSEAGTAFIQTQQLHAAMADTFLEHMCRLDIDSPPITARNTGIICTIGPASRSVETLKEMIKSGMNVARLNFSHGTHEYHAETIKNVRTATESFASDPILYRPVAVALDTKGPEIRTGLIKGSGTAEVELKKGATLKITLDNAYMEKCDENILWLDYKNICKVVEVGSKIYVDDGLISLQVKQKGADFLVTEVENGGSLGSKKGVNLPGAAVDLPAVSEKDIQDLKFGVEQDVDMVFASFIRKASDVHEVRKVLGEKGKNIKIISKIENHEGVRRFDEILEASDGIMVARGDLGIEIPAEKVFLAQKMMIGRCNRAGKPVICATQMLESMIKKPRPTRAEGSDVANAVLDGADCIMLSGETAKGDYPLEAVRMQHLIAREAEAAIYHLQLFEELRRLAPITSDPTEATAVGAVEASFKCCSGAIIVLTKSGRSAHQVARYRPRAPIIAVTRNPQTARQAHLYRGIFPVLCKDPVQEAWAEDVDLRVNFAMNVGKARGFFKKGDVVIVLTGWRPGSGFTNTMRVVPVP
# Description: Activity was measured by Kinase-Glo® Plus Luminescent Kinase Assay kit (promega), using ADP and PEP as substrates), with PKM2 at 50 nM. Shown are values with the basal activity of PKM2 alone subtracted out.
# Pyruvate kinase activity was measured by using Kinase-Glo® Plus Luminescent Kinase Assay kit (Promega). 50-100 nM of purified WT or mutant PKM2 was added in 100 μl assay buffer containing 50 mM Tris pH7.5, 100 mM KCl, 10 mM MgCl2, 200 μM PEP, 200 μM ADP, and 3% DMSO. After a 15-min incubation, Kinase-Glo Plus™ reagent (Promega Corporation, Madison, Wis., USA) was added, according to the manufacturer's instructions. In some cases, 0-40 μM fructose 1,6-bisphosphate (FBP) and 0-150 nM scFv 5 were added.
# [7] = test system: MEFs; experiment: BimS-resistant clonogenic survival in MEFs; format: cell-based, mouse
# Description: The plates were fixed and stained with crystal violet after 1 week and the total area of colonies were counted as above. The SD and P value was calculated from 6 individual plates.
# WT, Mfn1- or Mfn2-deficient MEFs were infected or not with IB5 lentivirus, then 1×10^5 cells were plated and transfected with BimS expression plasmid. The plates were fixed and stained with crystal violet after 1 week and the total areas of colonies were measured as above. Mean, SD and P values were calculated from 5 individual plates.
# Cell viability was measured with a Countess™ Automated Cell Counter (Invitrogen) using trypan blue. For the clonogenic survival assay, 293T or MEFs cells were seeded in 6-well plates at 1×10^5 cells/well in a 2-ml volume, transfected with BimS cDNA and incubated for 24 h. Afterwards, the medium was replaced and the cells cultured for 3-4 days. Thereafter, the plates were rinsed with PBS and fixed and stained with a solution containing crystal violet (0.5% w/v) and glutaraldehyde (6% v/v) as described (Franken et al., 2006).
# [8] = molecular target: T2, PKM2 (K270M) (Homo sapiens, UniProt P14618, K270M); experiment: Blue native gel electrophoresis, PKM2 (K270M); format: binding; settings: not shown
# T2 construct: His (N); made in house; host or cells: Escherichia coli BL21(DE3)
# T2 sequence (P14618 whole entry K270M): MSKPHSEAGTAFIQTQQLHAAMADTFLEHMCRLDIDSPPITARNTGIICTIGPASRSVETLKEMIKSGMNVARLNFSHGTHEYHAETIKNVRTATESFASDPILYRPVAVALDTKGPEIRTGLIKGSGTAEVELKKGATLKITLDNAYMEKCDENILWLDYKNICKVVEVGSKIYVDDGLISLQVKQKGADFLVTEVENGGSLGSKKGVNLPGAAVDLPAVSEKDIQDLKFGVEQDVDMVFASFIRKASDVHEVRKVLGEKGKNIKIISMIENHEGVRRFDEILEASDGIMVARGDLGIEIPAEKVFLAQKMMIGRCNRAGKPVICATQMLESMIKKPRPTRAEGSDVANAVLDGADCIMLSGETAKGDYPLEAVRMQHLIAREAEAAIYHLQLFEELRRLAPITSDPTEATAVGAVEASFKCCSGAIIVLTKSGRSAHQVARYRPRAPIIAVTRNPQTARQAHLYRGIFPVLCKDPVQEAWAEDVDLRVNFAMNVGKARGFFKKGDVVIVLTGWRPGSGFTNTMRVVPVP
# From the text: To begin to define the aspects of PKM2 function required for the IB5-induced anti-apoptotic effect, the present inventors reconstituted PKM2-null MEFs with WT or mutant forms of PKM2. The present inventors first analyzed the K270M mutation, reported to be catalytically dead (Bollenbach et al., 1999; Dombrauckas et al., 2005; Luo et al., 2011).
# [9] = molecular target: T1, WT PKM2; experiment: Blue native gel electrophoresis of recombinant proteins, WT PKM2; format: binding
# Description: Left: A monovalent form of scFv 5, produced in E. coli, induced tetramer formation in WT PKM2 along with a bandshift whose magnitude was dependent on the input amount of scFv 5. […] Reaction volume was 20 μl.
# Because glucose metabolism can influence cell survival (Fulda and Debatin, 2007; Moley and Mueckler, 2000; Munoz-Pinedo et al., 2012), The present inventors asked whether IB5 could rescue cells simply through stimulating PKM2's glycolytic activity. First, to analyze the antibody's interaction with PKM2, the present inventors produced monovalent scFv 5 and PIKM2 as recombinant proteins in E. coli and analyzed mixtures of these proteins, by blue native gel electrophoresis (FIG. 3A).
molecule,measurement,setting,value
"IB5: intracellularly expressed single-chain antibody (scFv) specific for PKM2, SEQ ID NO: 2; also made as monovalent recombinant scFv in E. coli (protein, artificial intrabody clone 5, also made as monovalent recombinant scFv in E. coli) scFv: MAQVQLVETGPGLVKPSETLSLRCTVSGGSFDNYYWNWIRQPPGKGLEYIGYVFPSTGATNYNPSLGSRVTISLDTSKNQFSLTLTSVTTADTAIYYCVRSGHDLWTGSTWFDPWGQWTTVTVSSGGGGSGGGGSGGGGSEIVLTQSPGTLSLSPGERATLSCRASQSVSSSYLAWYQQKPGQAPRLLIYGASSRATGIPDRFSGSGSGTDFTLTISRLEPEDIAVYYCQQRSNWPRTFGQGTKVEIKRGLGGLASVDYKDDDDK",levels of Mfn1,[1]; cells expressing the K422R mutant,upregulated Mfn1 even further
same,Mfn2 levels,[1]; reconstituted MEFs,left Mfn2 levels unchanged
same,levels of Mfn1,[1]; reconstituted MEFs,substantially increased
same,ability to rescue cells from BimS killing after PKM2 silencing,[2],substantial reduction
same,rescue from BimS-induced cell death,[3],failed to rescue
same,resistance of mitochondria to MOMP induced by cleaved Bid protein,[4],reproducibly more resistant than control mitochondria to MOMP
same,shift of electrophoretic mobility of recombinant PKM1,[5],failed to shift the electrophoretic mobility
same,glycolytic (pyruvate kinase) activity of WT PKM2,[6],stimulated PKM2's glycolytic activity in a concentration-dependent manner
same,rescue from BimS-induced clonogenic death,[7]; Mfn1-deficient MEFs,failed to rescue
same,rescue from BimS-induced death (clonogenic),[7]; Mfn2-null MEFs,rescued
same,rescue from BimS-induced death (clonogenic),[7]; WT MEFs,rescued
same,clonogenic survival,[7]; early passage MEFs with PKM2 (K422R),enhanced clonogenic survival
same,clonogenic survival,[7]; later-passage MEFs with PKM2 (K422R),further enhanced
same,stable tetramer formation of PKM2 (K270M),[8],prevented the protein from forming stable tetramers
same,tetramer formation of WT PKM2,[9]; blue native gel,strongly increased the tetrameric PIKMV2 species
same,direct binding to PKM2,[9]; in vitro experiments,bound directly to PKM2

# Source: patent US20200239597A1, “AN ANTI-APOPTOTIC FUNCTION OF PKM2 AND INTRACELLULARLY EXPRESSED SCFV ANTIBODIES” (La Jolla Institute for Allergy and Immunology, priority 2017, published 2020)
